Tests used:
[1] = biological target: T1, autophosphorylated α-CaMKII / α1C amino acids 1581-1690 (Rattus norvegicus, UniProt P11275); assay: GST pull down of autophosphorylated α-CaMKII with α1C aa 1581-1690, peptide competition; type: binding; conditions: 40 μM peptide; 20 nM α-CaMKII
T1 construct: made in house; GST fusion proteins from bacterial lysates
Protocol: (B) Immunoblot with CBα2 after GST pull down of purified autophosphorylated α-CaMKII (20 nM), using α1C amino acids 1581-1690 fused to GST. Pull down assay performed in the presence of 40 μM of the indicated peptide or the peptide diluent DMSO. (C) Immunoblots with CBα2 or an anti-CaM antibody after a GST pull down assay, using α1C amino acids 1581-1690 (WT), a ^1644TVGKFY^1649→EEDAAA mutant (Mut6), or GST alone, of purified autophosphorylated CaMKII (left) or CaM (right). Top panels show a Ponceau stain of each fusion protein. […] Asterisk indicates p<0.001 for a one-way analysis of variance followed by a Dunnett's test to identify specific pair-wise differences between the means for Mut6 vs. wt and GST vs. wt, n=4-8. […] Top panels show a Ponceau stain of each fusion protein.
The binding reactions were accomplished in Tris binding buffer (50 mM Tris, 150 mM NaCl, 0.1% T-20 at pH 7.4 ml plus 0.1% BSA) containing 20 nM purified CaMKII. The total protein from the HEK293 cell lysates added to each binding reaction ranged from 9-22 μg, determined by normalizing for the amount of CaMKII activity (Singla et al., 2001). Pre-autophosphorylayion of CaMKII (purified and lysate) was accomplished at 4° C. for 5 min in Tris binding buffer plus 1 mM CaCl2, 5 μM CaM, 1 mM ATP, and 5 mM MgCl2 to restrict the sites of autophosphorylation to primarily Thr286 (Ikeda et al., 1991; Lai et al., 1987; Lou and Schulman, 1989). Final concentration of these components in the binding reaction (1:40) was 0.025 mM CaCl2, 0.125 μM CaM, 0.025 mM ATP, and 0.125 MM MgCl2. The binding reaction was rocked for 1 h at 4° C. and the beads extensively washed in Tris binding buffer (2-3× for 5 mins each). Immunoblots were performed multiple times with identical results and Ponceau staining was always performed to ensure equal loading and transfer. CaMKII binding was quantified using densiotometric measurement of band intensity using KODAK 1D Image Analysis Software (Eastman Kodak, Company). […]

[2] = biological target: T2, cloned L-type channels (subunit α1C77) (Homo sapiens, UniProt Q13936); assay: Check for use-dependence of diltiazem block of cloned L-type channels; type: cell-based; conditions: 100 μM; same solutions and voltage protocol as granule cells
T2 construct: expressed in transfected cells; host or cells: HEK293 stably transfected with α2-δ and β1C (HEKα2β1), transiently transfected with α1C77 and GFP
Protocol: Dissociated cerebellar granule cells were prepared from 7-day old C57/BL6 mouse cerebella and grown in culture by a published protocol (Piedras-Renteria and Tsien, 1998; Randall and Tsien, 1995). The cerebellar granule cells were maintained in Minimal Essential Medium (Invitrogen) supplemented with 10% fetal bovine serum, glucose 5 mg/liter, transferrin 100 mg/liter, insulin 25 mg/liter, glutamine 300 mg/liter, and potassium chloride 20 mM. Cells were plated on Matrigel (Collaborative Biomedical Product) treated glass coverslips in 24-well chambers and maintained in a humidified, 37° C. incubator with […]/5% CO2. Cells were maintained for 6 to 9 days in culture prior to electrophysiological experiments. HEK293 cells stably transfected with the α2-δ and β1C subunits (HEKα2β1) were grown in Dulbecco's Modified Eagle's Medium containing 10% v/v calf serum, penicillin (100 units/ml), streptomycin (100 μg/ml), and kept under positive selection with Geneticin (400 μg/ml) while being maintained as described above. cDNAs encoding the α1C77 subunit (Zühlke and Reuter, 1998) and the green fluorescent protein were transiently transfected into HEKα2β1 cells by using the Lipofectamine2000 reagent (Invitrogen). Electrophysiological experiments were performed >24 hrs after transfection.

[3] = test system: L-type Ca^2+ currents in cerebellar granule cells; assay: Patch-clamp of Ca2+-dependent facilitation of L-type currents in cerebellar granule cells; type: cell-based, C57/BL6 mouse; conditions: 2 μM peptide in patch pipette; Ca^2+ charge carrier; train of five pulses; without peptide facilitation ~50%
Protocol: Dissociated cerebellar granule cells were prepared from 7-day old C57/BL6 mouse cerebella and grown in culture by a published protocol (Piedras-Renteria and Tsien, 1998; Randall and Tsien, 1995). The cerebellar granule cells were maintained in Minimal Essential Medium (Invitrogen) supplemented with 10% fetal bovine serum, glucose 5 mg/liter, transferrin 100 mg/liter, insulin 25 mg/liter, glutamine 300 mg/liter, and potassium chloride 20 mM. Cells were plated on Matrigel (Collaborative Biomedical Product) treated glass coverslips in 24-well chambers and maintained in a humidified, 37° C. incubator with […]/5% CO2. Cells were maintained for 6 to 9 days in culture prior to electrophysiological experiments. […]
Cerebellar granule cells, identified on the basis of morphology and size, comprised >90% of the cells in the primary culture. […] Voltage-gated Ca^2+ and Ba^2+ currents were recorded from cells depolarized to 0 mV with five 20 ms pulses (50 ms interpulse interval) from a −90 mV holding potential. […]

T2 sequence (Q13936 1-2138 isoform Q13936-20): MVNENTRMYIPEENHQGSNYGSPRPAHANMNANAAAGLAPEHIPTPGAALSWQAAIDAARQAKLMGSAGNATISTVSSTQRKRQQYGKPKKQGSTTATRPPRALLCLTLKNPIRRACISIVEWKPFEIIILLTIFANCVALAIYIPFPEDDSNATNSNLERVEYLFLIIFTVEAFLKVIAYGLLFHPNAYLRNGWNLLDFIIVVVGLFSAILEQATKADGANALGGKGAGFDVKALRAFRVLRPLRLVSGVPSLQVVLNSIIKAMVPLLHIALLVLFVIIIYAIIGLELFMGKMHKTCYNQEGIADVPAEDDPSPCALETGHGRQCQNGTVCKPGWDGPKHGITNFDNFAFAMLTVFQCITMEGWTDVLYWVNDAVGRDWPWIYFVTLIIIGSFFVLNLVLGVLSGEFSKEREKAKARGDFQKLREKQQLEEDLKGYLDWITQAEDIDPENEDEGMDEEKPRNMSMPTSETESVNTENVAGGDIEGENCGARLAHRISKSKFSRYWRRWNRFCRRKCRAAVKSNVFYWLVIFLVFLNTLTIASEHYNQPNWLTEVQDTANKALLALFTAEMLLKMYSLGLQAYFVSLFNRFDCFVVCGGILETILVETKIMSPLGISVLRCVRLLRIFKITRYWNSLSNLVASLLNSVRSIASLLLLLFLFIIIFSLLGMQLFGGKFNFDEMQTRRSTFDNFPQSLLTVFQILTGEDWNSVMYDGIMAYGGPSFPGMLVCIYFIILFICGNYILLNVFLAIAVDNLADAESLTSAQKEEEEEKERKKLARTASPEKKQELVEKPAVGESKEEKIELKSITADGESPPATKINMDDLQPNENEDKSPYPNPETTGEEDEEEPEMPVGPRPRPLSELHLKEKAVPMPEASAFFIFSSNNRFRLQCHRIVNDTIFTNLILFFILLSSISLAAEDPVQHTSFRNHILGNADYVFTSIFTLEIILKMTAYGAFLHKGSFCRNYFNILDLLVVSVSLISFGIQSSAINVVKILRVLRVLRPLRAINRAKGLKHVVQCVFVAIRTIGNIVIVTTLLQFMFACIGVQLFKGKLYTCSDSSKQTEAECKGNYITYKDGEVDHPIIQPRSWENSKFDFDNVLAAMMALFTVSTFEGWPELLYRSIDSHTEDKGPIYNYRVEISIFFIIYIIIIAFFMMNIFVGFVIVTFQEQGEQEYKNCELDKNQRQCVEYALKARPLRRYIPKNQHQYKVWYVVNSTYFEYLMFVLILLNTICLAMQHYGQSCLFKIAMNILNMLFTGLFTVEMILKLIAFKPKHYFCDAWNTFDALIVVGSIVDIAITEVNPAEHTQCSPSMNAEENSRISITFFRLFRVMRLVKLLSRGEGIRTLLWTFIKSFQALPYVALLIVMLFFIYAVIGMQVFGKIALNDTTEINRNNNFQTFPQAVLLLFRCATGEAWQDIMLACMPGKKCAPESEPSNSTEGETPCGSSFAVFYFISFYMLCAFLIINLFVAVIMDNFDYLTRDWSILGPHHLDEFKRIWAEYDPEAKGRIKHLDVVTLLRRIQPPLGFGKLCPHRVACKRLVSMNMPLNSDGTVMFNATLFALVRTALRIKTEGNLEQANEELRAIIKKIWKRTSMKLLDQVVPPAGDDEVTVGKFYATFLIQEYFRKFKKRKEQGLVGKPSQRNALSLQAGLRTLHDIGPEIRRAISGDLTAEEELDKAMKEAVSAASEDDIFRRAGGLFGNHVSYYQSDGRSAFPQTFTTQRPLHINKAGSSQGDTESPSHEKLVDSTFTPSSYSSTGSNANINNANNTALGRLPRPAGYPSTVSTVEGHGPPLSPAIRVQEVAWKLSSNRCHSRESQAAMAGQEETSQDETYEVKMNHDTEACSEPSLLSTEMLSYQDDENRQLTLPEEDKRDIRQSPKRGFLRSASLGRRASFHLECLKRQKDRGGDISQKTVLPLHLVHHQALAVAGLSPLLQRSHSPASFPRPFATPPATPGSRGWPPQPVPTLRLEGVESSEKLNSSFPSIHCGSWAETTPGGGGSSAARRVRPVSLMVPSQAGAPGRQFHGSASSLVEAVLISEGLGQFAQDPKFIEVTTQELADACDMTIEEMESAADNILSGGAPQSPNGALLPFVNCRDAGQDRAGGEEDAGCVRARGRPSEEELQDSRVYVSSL
T2 sequence (Q02641 whole entry partner): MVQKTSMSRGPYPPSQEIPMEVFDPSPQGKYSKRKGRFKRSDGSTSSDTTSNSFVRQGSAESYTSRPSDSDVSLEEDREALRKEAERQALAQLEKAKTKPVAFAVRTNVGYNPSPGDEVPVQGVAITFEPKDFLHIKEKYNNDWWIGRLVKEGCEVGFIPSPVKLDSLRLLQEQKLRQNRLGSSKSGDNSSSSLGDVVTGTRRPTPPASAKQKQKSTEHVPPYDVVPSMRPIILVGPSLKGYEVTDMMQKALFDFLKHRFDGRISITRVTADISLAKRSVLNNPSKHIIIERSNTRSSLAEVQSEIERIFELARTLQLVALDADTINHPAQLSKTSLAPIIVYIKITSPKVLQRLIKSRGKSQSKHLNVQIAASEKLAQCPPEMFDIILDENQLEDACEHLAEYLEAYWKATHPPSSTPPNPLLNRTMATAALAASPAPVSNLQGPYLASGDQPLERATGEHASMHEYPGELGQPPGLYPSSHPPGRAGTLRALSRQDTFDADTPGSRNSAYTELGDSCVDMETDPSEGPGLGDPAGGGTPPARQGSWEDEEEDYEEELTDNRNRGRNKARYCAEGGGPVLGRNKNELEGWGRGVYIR
T2 sequence (P54289 25-946 partner limits assumed): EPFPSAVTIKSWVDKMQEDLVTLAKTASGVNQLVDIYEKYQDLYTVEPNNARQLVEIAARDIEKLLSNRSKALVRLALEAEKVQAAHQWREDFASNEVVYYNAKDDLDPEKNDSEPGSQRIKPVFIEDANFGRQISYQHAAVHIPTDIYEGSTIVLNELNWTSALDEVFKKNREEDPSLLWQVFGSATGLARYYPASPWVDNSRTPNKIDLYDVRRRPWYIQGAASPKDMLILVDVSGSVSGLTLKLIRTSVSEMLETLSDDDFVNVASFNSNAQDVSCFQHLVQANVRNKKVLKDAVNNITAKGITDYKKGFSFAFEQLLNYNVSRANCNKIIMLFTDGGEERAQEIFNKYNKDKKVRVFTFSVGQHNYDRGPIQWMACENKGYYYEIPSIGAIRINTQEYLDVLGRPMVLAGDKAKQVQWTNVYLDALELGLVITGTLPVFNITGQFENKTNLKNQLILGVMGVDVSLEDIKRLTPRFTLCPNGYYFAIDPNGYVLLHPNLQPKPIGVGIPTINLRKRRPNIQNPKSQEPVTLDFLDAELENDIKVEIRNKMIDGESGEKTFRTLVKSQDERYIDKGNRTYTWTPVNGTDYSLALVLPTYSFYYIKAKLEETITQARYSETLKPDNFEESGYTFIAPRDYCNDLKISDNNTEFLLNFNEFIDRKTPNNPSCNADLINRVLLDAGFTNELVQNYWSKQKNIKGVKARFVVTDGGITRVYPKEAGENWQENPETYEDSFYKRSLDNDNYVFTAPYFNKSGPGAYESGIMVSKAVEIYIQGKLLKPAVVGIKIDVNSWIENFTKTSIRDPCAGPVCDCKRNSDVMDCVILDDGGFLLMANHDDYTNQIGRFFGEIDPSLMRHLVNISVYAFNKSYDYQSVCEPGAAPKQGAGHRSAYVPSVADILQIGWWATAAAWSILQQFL
T2 sequence (P54289 947-1103 partner limits assumed): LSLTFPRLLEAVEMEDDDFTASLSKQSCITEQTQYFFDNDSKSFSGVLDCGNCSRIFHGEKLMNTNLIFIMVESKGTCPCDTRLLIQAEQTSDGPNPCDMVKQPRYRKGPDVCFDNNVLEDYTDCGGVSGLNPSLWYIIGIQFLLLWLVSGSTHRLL

1589-1610: ~22 aa peptide of α1C residues 1589-1610, site important for tethering of apoCaM (KRLVSMNMPLNSDGTVMFNATL; UniProt Q13936 1589-1610, looked up, fragment)
interaction of autophosphorylated CaMKII with the 1581-1690 fusion protein [1]: not inhibited

1615-1636: ~22 aa peptide of α1C residues 1615-1636, site important for tethering of apoCaM (RTALRIKTEGNLEQANEELRAI; UniProt Q13936 1615-1636, looked up, fragment)
interaction of autophosphorylated CaMKII with the 1581-1690 fusion protein [1]: not inhibited

1639-1660: ~22 aa peptide generated from α1C residues 1639-1660, contains TVGKFY (KIWKRTSMKLLDQVVPPAGDDE; UniProt Q13936 1639-1660, looked up, fragment)
interaction of autophosphorylated CaMKII with the 1581-1690 fusion protein [1]: dramatically reduced

COc1ccc([C@@H]2Sc3ccccc3N(CCN(C)C)C(=O)[C@@H]2OC(C)=O)cc1 [diltiazem]
use-dependence of block of calcium currents [2]: none were found

KKALRRQEAVDAL [autocamtide-2-related inhibitory peptide]
decrease in peak L-type current over the course of the depolarizing pulse train [3]: ~25%

— US20060079445A1, “CaMKII/calcium channel binding-related compositions and methods” (priority 2004, published 2006)
